Source: article PMC11893383 (Frontiers in Immunology, 2025)

What was measured:
[1] = target: T1, SARS-CoV-2 wild-type (WT) spike trimer (SARS-CoV-2, wild type (Wuhan-Hu-1 …, UniProt P0DTC2)); test: ELISA; conditions: both partners purified
T1 construct: also called spike protein

[2] = target: T2, SARS-CoV-2 Omicron B.1.1.529 receptor-binding domain (RBD), His-tagged (SARS-CoV-2 Omicron B.1.1.529 (BA.1), strain); test: BLI; conditions: both partners purified
T2 construct: also called B.1.1.529 RBD; RBD Omicron B.1.1.529

Binder | binding result [1] | Kd [2] [nM]
AB5-16 (antibody, V domains shown) VH: QALMVQSEAAVKKPGASVKVSCKATGDAFSNHYLHWLRQAPGQGLEWLGIINPGAGSTTYAQKFQGRLTVTTDTSTNTVYMELSSLRSDDTAVYYCARDGAFIPSSYYYGMDVWGQGTTVTVSS VL: EIVLTQSPGTLALSPGERATLSCRASQSVSSSYLAWYQQKPGQAPRLLIYGASSRATGVPDRFSGSGSGTDFTLTVSSLEPEDFAVYYCQQREAFGQGTKVEVK | binds | –
AB5-20 (antibody, V domains shown) VH: QVQLVESGGGVVQPGRSLRLSCTASGFTFRHYGLHWVRQAPGKGLEWVAVILYDGSDEDYRDSVKGRFTISRDNSKNTLYLQMNSLRPEDTAVYYCAKQSGPYCSGGNCYSGHFDYWGQGTPVSVSS VL: DIQMTQSPSSLSASVGDRVTITCQASQDISKSLSWYEQKPGKAPRLLIFEASNLETGVPSRFSGSGSGTSFSFTISSLQPEDFATYYCQQYDNVPLTFGGGTKVERK | binds | –
AB6-17 (antibody, V domains shown) VH: QLQLQESGPGLVESSETLSLTCTVSSGSISRSTYYWGWIRQPPGKGMEWIGSISSGGSTYYNPSLNSRVTISIDTSKNQFSLKLRSVTAADTAVYYCARALQWPSPRIDYWAQGTLVTVSS VL: DIQMTQSPSSLSASVGDRVTITCRASQSISSYLNWYQHKPGKAPKLLIYAASSLESGVPSRFTGSGSGTDFTLTIDSLQPEDFATYYCQQSYSTPLFTFGPGTTVDIK | binds | –
AB5-18 (antibody, V domains shown) VH: EVQLVESGGGLVQPGGSLRLSCAASGITVTSNYMTWVRQAPGKGLEWVSLIYAGGSTFYADSVKGRFTVSRDKSKNTLYLQMNSLRGEDTAVYYCARDLQEAGGMDVWGQGTTVTVSS VL: ENVLTQSPGTLSLSPGERATLSCRASQFVSSTFLAWYQQKPGQAPRLLMYGASNRATDIPDRFSGGGSGTDFTLTISRLEPEDFAVYYCQQFGSSPFTFGQGTKLEIK | – | 3.4
AB5-21 (antibody, V domains shown) VH: EVQLVESGGGLVQPGGSLRLSCAASGLIVSSNYMHWVRQAPGEGLEWVSVIYSGGSTFYADSVKGRFTISRDNSKNTLYLQMNSLRAEDTAVYYCARGLGDPMDVWGQGTTVTVSS VL: DIQLTQSPSFLSASVGDRVTITCRASQGISSDLAWYQQKPGKAPKLLINAASTLQNGVPSRFSGSGSGTEFTLSISSLQPEDFATYYCQQLNSYPPKLTFGGGTKVEIK | – | 30
